What was measured:
[1] = target: prohibitin isoform 1 (human (endogenous in SH-SY5Y, U-87 MG, CHME-3)) (UniProt P35232)
[2] = target: prohibitin-2 isoform 1 (human (endogenous in SH-SY5Y, U-87 MG, CHME-3)) (UniProt Q99623)
[3] = target: prohibitin isoform 1 (human (endogenous in SH-SY5Y, U-87 MG, CHME-3)) (UniProt P35232); remark: listed apart in the source
[4] = target: prohibitin-2 isoform 1 (human (endogenous in SH-SY5Y, U-87 MG, CHME-3)) (UniProt Q99623); remark: listed apart in the source
[5] = target: prohibitin-2 isoform 1 (human (endogenous in SH-SY5Y, U-87 MG, CHME-3)) (UniProt Q99623); remark: listed apart in the source

UniProt P35232, sequence (P35232 whole entry, canonical isoform): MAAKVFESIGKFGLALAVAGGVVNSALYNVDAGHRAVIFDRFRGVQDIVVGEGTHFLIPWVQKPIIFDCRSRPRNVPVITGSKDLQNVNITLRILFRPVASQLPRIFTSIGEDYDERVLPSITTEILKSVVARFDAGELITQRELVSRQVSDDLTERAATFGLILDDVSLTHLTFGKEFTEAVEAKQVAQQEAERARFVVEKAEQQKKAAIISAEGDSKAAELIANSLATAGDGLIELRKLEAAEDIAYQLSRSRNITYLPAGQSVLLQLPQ
UniProt Q99623, sequence (Q99623 whole entry, canonical isoform): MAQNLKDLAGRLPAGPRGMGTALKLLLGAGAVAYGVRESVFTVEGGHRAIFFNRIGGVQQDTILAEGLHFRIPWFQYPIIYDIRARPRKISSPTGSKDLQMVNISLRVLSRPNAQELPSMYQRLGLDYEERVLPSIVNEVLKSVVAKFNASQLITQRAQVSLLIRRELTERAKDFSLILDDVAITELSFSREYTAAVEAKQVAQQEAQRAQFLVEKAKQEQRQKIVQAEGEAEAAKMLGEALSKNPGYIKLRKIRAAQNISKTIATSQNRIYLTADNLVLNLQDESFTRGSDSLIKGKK

“DENV-3 (16562), purified virus (complex)” was tested, and the % fluorescent (DENV-3 antigen) positive SH-SY5Y cells by IFA 30 h PI, cells pre-incubated with anti-PHB1 antibody, 1 to 2 μg (17 to 10%; virus control 40%, anti-actin control 35%) [1] was 17%, the % fluorescent (DENV-3 antigen) positive SH-SY5Y cells by IFA 30 h PI, cells pre-incubated with anti-PHB2 antibody, 1 to 2 μg (11 to 6%; virus control 40%, anti-actin control 35%) [2] was 11% and the reduction in DENV-3 plaques, CHME-3 cells pre-incubated with PHB1 antibody [3] was 73.3%. For the same substance, the reduction in DENV-3 plaques, SH-SY5Y cells pre-incubated with anti-PHB1 antibody [3] was 55%, the reduction in DENV-3 plaques, CHME-3 cells pre-incubated with PHB2 antibody [4] was 82.2% and the reduction in DENV-3 plaques, SH-SY5Y cells pre-incubated with anti-PHB2 antibody [4] was 75%. The entry assay: reduction in virus titre, CHME-3 cells with bound DENV-3 (MOI 100) treated with PHB2 polyclonal antibody at 37 °C for 1.5 h [5] was 82%.

From article PMC7168832
